Reference: the supplement of paper PMC11246515
± gives the standard deviation of the averaged measurements.

Assay: total protein half-life in vivo (active degradation + dilution); higher = more stable protein
[1] = E. coli NCM3722 delta-clpP delta-lon delta-hslV, growth: N-lim chemostat, doubling time 6 h
[2] = E. coli NCM3722 delta-clpP, growth: N-lim chemostat, doubling time 6 h
[3] = E. coli NCM3722 delta-hslV, growth: N-lim chemostat, doubling time 6 h
[4] = E. coli NCM3722 delta-lon, growth: N-lim chemostat, doubling time 6 h
[5] = E. coli NCM3722 delta-smpB, growth: N-lim chemostat, doubling time 6 h
[6] = wild type E. coli NCM3722, growth: C-lim chemostat, doubling time 3 h
[7] = wild type E. coli NCM3722, growth: C-lim chemostat, doubling time 6 h
[8] = wild type E. coli NCM3722, growth: C-lim chemostat, doubling time 12 h
[9] = wild type E. coli NCM3722, growth: N-lim chemostat, doubling time 6 h
[10] = wild type E. coli NCM3722, growth: N-lim chemostat, doubling time 12 h
[11] = wild type E. coli NCM3722, growth: P-lim chemostat, doubling time 6 h
[12] = wild type E. coli NCM3722, growth: P-lim chemostat, doubling time 12 h

MSTSDDIHNTTATGKCPFHQGGHDQSAGAGTTTRDWWPNQLRVDLLNQHSNRSNPLGEDFDYRKEFSKLDYYGLKKDLKALLTESQPWWPADWGSYAGLFIRMAWHGAGTYRSIDGRGGAGRGQQRFAPLNSWPDNVSLDKARRLLWPIKQKYGQKISWADLFILAGNVALENSGFRTFGFGAGREDVWEPDLDVNWGDEKAWLTHRHPEALAKAPLGATEMGLIYVNPEGPDHSGEPLSAAAAIRATFGNMGMNDEETVALIAGGHTLGKTHGAGPTSNVGPDPEAAPIEEQGLGWASTYGSGVGADAITSGLEVVWTQTPTQWSNYFFENLFKYEWVQTRSPAGAIQFEAVDAPEIIPDPFDPSKKRKPTMLVTDLTLRFDPEFEKISRRFLNDPQAFNEAFARAWFKLTHRDMGPKSRYIGPEVPKEDLIWQDPLPQPIYNPTEQDIIDLKFAIADSGLSVSELVSVAWASASTFRGGDKRGGANGARLALMPQRDWDVNAAAVRALPVLEKIQKESGKASLADIIVLAGVVGVEKAASAAGLSIHVPFAPGRVDARQDQTDIEMFELLEPIADGFRNYRARLDVSTTESLLIDKAQQLTLTAPEMTALVGGMRVLGANFDGSKNGVFTDRVGVLSNDFFVNLLDMRYEWKATDESKELFEGRDRETGEVKFTASRADLVFGSNSVLRAVAEVYASSDAHEKFVKDFVAAWVKVMNLDRFDLL
total protein half-life in vivo [1]: 4.4 ± 0.59 h
total protein half-life in vivo [2]: 4.3 ± 0.3 h
total protein half-life in vivo [3]: 3.14 ± 0.31 h
total protein half-life in vivo [4]: 3.31 ± 0.44 h
total protein half-life in vivo [5]: 3.68 ± 0.21 h
total protein half-life in vivo [6]: 3.116 ± 0.024 h
total protein half-life in vivo [7]: 5.85 ± 0.14 h
total protein half-life in vivo [8]: 11.8 ± 0.71 h
total protein half-life in vivo [9]: 3.11 ± 0.44 h
total protein half-life in vivo [10]: 3.44 ± 0.15 h
total protein half-life in vivo [11]: 5.34 ± 0.14 h
total protein half-life in vivo [12]: 8.87 ± 0.34 h

MSTTIEKIQRQIAENPILLYMKGSPKLPSCGFSAQAVQALAACGERFAYVDILQNPDIRAELPKYANWPTFPQLWVDGELVGGCDIVIEMYQRGELQQLIKETAAKYKSEEPDAE [P0AC69]
total protein half-life in vivo [1]: 6.29 h
total protein half-life in vivo [2]: 5.76 ± 1.2 h
total protein half-life in vivo [3]: 3.71 ± 0.071 h
total protein half-life in vivo [4]: 4.31 ± 0.19 h
total protein half-life in vivo [5]: 3.43 ± 0.19 h
total protein half-life in vivo [6]: 2.37 ± 0.19 h
total protein half-life in vivo [7]: 5.03 ± 0.74 h
total protein half-life in vivo [8]: 6.84 ± 0.26 h
total protein half-life in vivo [9]: 3.25 ± 0.33 h
total protein half-life in vivo [10]: 5.45 ± 0.99 h
total protein half-life in vivo [11]: 4.67 ± 1.3 h
total protein half-life in vivo [12]: 11.4 ± 3.8 h

MSVFPESFLWGGALAANQSEGAFREGDKGLTTVDMIPHGEHRMAVKLGLEKRFQLRDDEFYPSHEATDFYHRYKEDIALMAEMGFKVFRTSIAWSRLFPQGDEITPNQQGIAFYRSVFEECKKYGIEPLVTLCHFDVPMHLVTEYGSWRNRKLVEFFSRYARTCFEAFDGLVKYWLTFNEINIMLHSPFSGAGLVFEEGENQDQVKYQAAHHQLVASALATKIAHEVNPQNQVGCMLAGGNFYPYSCKPEDVWAALEKDRENLFFIDVQARGTYPAYSARVFREKGVTINKAPGDDEILKNTVDFVSFSYYASRCASAEMNANNSSAANVVKSLRNPYLQVSDWGWGIDPLGLRITMNMMYDRYQKPLFLVENGLGAKDEFAANGEINDDYRISYLREHIRAMGEAIADGIPLMGYTTWGCIDLVSASTGEMSKRYGFVFVDRDDAGNGTLTRTRKKSFWWYKKVIASNGEDLE
total protein half-life in vivo [1]: 3.7 h
total protein half-life in vivo [2]: > 8 h
total protein half-life in vivo [3]: 1.88 h
total protein half-life in vivo [5]: 1.81 ± 0.14 h
total protein half-life in vivo [7]: 2.47 h
total protein half-life in vivo [8]: 4.65 ± 0.73 h
total protein half-life in vivo [12]: 4.04 ± 0.89 h

MSVIAQAGAKGRQLHKFGGSSLADVKCYLRVAGIMAEYSQPDDMMVVSAAGSTTNQLINWLKLSQTDRLSAHQVQQTLRRYQCDLISGLLPAEEADSLISAFVSDLERLAALLDSGINDAVYAEVVGHGEVWSARLMSAVLNQQGLPAAWLDAREFLRAERAAQPQVDEGLSYPLLQQLLVQHPGKRLVVTGFISRNNAGETVLLGRNGSDYSATQIGALAGVSRVTIWSDVAGVYSADPRKVKDACLLPLLRLDEASELARLAAPVLHARTLQPVSGSEIDLQLRCSYTPDQGSTRIERVLASGTGARIVTSHDDVCLIEFQVPASQDFKLAHKEIDQILKRAQVRPLAVGVHNDRQLLQFCYTSEVADSALKILDEAGLPGELRLRQGLALVAMVGAGVTRNPLHCHRFWQQLKGQPVEFTWQSDDGISLVAVLRTGPTESLIQGLHQSVFRAEKRIGLVLFGKGNIGSRWLELFAREQSTLSARTGFEFVLAGVVDSRRSLLSYDGLDASRALAFFNDEAVEQDEESLFLWMRAHPYDDLVVLDVTASQQLADQYLDFASHGFHVISANKLAGASDSNKYRQIHDAFEKTGRHWLYNATVGAGLPINHTVRDLIDSGDTILSISGIFSGTLSWLFLQFDGSVPFTELVDQAWQQGLTEPDPRDDLSGKDVMRKLVILAREAGYNIEPDQVRVESLVPAHCEGGSIDHFFENGDELNEQMVQRLEAAREMGLVLRYVARFDANGKARVGVEAVREDHPLASLLPCDNVFAIESRWYRDNPLVIRGPGAGRDVTAGAIQSDINRLAQLL
total protein half-life in vivo [1]: 3.69 ± 0.6 h
total protein half-life in vivo [2]: 2.74 ± 0.12 h
total protein half-life in vivo [3]: 2.95 ± 0.31 h
total protein half-life in vivo [4]: 3.25 ± 0.14 h
total protein half-life in vivo [5]: 3.01 ± 0.38 h
total protein half-life in vivo [6]: 3.08 ± 0.22 h
total protein half-life in vivo [7]: 4.89 ± 0.2 h
total protein half-life in vivo [8]: 9.3 ± 0.67 h
total protein half-life in vivo [9]: 2.79 ± 0.053 h
total protein half-life in vivo [10]: 4.57 ± 0.19 h
total protein half-life in vivo [11]: 6 ± 0.21 h
total protein half-life in vivo [12]: 11.1 ± 0.36 h

MSVMLQSLNNIRTLRAMAREFSIDVLEEMLEKFRVVTKERREEEEQQQRELAERQEKISTWLELMKADGINPEELLGNSSAAAPRAGKKRQPRPAKYKFTDVNGETKTWTGQGRTPKPIAQALAEGKSLDDFLI [P0ACG1]
total protein half-life in vivo [1]: 7.04 ± 1.3 h
total protein half-life in vivo [2]: 6.38 ± 0.2 h
total protein half-life in vivo [3]: 6.63 ± 0.19 h
total protein half-life in vivo [4]: 7.2 ± 0.27 h
total protein half-life in vivo [5]: 5.86 ± 0.72 h
total protein half-life in vivo [6]: 3 ± 0.032 h
total protein half-life in vivo [7]: 5.941 ± 0.033 h
total protein half-life in vivo [8]: 8.33 ± 0.14 h
total protein half-life in vivo [9]: 4.94 ± 0.73 h
total protein half-life in vivo [10]: 12 ± 4 h
total protein half-life in vivo [11]: 5.04 ± 1.5 h
total protein half-life in vivo [12]: 11 ± 0.95 h
